In US20250101113A1:

Molecular target: human CD94 on cells (human) (UniProt Q13241)
Assay: cell-based or functional assay

Chain of UniProt Q13241 (Q13241 whole entry): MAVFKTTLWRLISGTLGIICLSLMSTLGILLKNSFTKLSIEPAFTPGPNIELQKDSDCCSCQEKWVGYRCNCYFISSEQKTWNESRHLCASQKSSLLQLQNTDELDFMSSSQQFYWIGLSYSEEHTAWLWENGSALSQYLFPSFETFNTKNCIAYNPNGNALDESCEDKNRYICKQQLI

CD107a expression on IL-2-activated NK cells co-cultured with HLA-E-expressing SP-53 cells (% of cells): 16%
Substance: commercial murine anti-CD94 antibody (clone DX22 from Biolegend Catalog #305502)
